For test [1], the target named is T1, cynomolgus transferrin receptor (TfR) ectodomain (ECD) (cynomolgus, UniProt Q5RDH6 121-760 (Pongo abelii entry), biotinylated where captured on streptavidin).
T1 construct: also called cyno TfR; cynoTfR
T1 chain: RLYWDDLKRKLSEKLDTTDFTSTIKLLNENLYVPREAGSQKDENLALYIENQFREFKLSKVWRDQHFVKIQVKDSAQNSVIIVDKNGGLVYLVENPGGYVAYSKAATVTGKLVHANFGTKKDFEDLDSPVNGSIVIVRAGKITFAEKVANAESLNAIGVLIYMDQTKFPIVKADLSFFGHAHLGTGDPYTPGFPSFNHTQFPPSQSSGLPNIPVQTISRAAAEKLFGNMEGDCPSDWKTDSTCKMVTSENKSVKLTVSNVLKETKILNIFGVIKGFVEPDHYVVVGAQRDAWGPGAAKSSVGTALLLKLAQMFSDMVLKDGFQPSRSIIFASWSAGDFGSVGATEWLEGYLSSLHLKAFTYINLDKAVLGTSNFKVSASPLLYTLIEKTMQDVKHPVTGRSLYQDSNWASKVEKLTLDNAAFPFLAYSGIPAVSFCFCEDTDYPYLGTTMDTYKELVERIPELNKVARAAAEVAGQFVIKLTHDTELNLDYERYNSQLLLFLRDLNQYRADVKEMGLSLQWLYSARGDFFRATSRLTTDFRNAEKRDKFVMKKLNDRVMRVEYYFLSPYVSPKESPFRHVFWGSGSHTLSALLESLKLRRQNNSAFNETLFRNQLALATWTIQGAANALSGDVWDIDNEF
The experiment in a line: phage ELISA: Fc variant on phage, titrated by OD268 of the phage solution on plate-coated cyno TfR; OD650. (In general: An ELISA detects its analyte on a solid surface through an enzyme-linked reagent.)

For test [2], the target named is T2, human transferrin receptor (TfR) ectodomain (ECD) (human, UniProt P02786 121-760, biotinylated where captured on streptavidin).
T2 construct: also called human TfR; huTfR
The experiment in a line: phage ELISA: phage at about its EC50 on plate-coated human TfR with soluble holo-Tf added at 0.007-5 uM; OD650.

B1: Clone CH2A2.16 (designed binder)
chain: PCPAPELLGGPSVFLFPPKPKDTLMISRTPEVTCVVVDVSHEDPEVWFEWYVDGVFVGVAYDVPREEQYNSTYRVVSVLTVLHQDWLNGKEYKCKVSNKALPAPIEKTISKAKGQPREPQVYTLPPSRDELTKNQVSLTCLVKGFYPSDIAVEWESNGQPENNYKTTPPVLDSDGSFFLYSKLTVDKSRWQQGNVFSCSVMHEALHNHYTQKSLSLSPGK
Take B1: the results for the binding result in test [1] and in test [2] were “no binding (tested: OD268 1 (phage solution))” and “binds”, respectively.

The values above are taken from US20230235072A1 (DENALI THERAPEUTICS, published 2023).
